The supplement of paper PMC10724198
± gives the standard deviation of the averaged measurements.

system: Saccharomyces cerevisiae; experiment: protein stability index of tFT-peptide fusion (C-terminal peptide) (PSI (0-1 scale)); higher = more stable (slower turnover); conditions: genetic background: wild type; temperature: 30 C
Protocol: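 MPS profiling in S. cerevisiae of the yeast C-terminome library: the last 12 aa of each annotated ORF are fused to the C-terminus of a sfGFP-mCherry timer, after a GGGS linker. Cells are FACS-sorted into 8 mCherry/sfGFP bins and deep-sequenced. PSI runs from 0 (unstable) to 1 (stable); wild type and das1Δ backgrounds, two technical replicates each.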

Sequence | protein stability index
LGSSMVQGRSIR [YPK1 C-terminal 12 aa] | 0.661 ± 0.0085
LHMNTNRLAGIR [SEC9 C-terminal 12 aa] | 0.718 ± 0.018
LHTLYLRPASAI [SSN8 C-terminal 12 aa] | 0.669 ± 0.03
LIDVVPRRPLPQ [HAP5 C-terminal 12 aa] | 0.723 ± 0.03
LIWELGDGQSGQ [INO4 C-terminal 12 aa] | 0.7182 ± 0.0015
LKALANETMSRI [VPS16 C-terminal 12 aa] | 0.706 ± 0.049
LKRISDIQADSS [PET494 C-terminal 12 aa] | 0.6987 ± 0.0012
LKSLKKNLTRDR [MTF2 C-terminal 12 aa] | 0.6605 ± 0.0051
LKSQSLTTGWSL [MNS1 C-terminal 12 aa] | 0.741 ± 0.058
LLCSDLVNGLMQ [SEC21 C-terminal 12 aa] | 0.707 ± 0.0075
LLDGGDGDEDAV [GON7 C-terminal 12 aa] | 0.7 ± 0.036
LLEAFLRKEQKV [YGR174W-A C-terminal 12 aa] | 0.619 ± 0.019
LLEDQVPVETKA [PYC1 C-terminal 12 aa] | 0.582 ± 0.0095
LLEKLDIKDKKE [YVC1 C-terminal 12 aa] | 0.703 ± 0.024
LLISMIAAGILL [GAS2 C-terminal 12 aa] | 0.551 ± 0.017
LLKQLKQGKISV [NOT3 C-terminal 12 aa] | 0.6481 ± 0.0033
LLLGTVSATNAI [YPL062W C-terminal 12 aa] | 0.706 ± 0.038
LLPGNTNLPWTS [ERG12 C-terminal 12 aa] | 0.742 ± 0.08
LLQVYDRVKASM [TOP3 C-terminal 12 aa] | 0.5992 ± 0.0013
LLRPPKPPLFCC [YGL123C-A C-terminal 12 aa] | 0.418 ± 0.032
LLRPRSPVQKAQ [KAR4 C-terminal 12 aa] | 0.658 ± 0.064

Sequence | protein stability index
LLVEKKDIPSNS [PRM4 C-terminal 12 aa] | 0.675 ± 0.013
LLYCNIYVYYRF [KAR1 C-terminal 12 aa] | 0.161 ± 0.0022
LMRRFVLEFEKQ [SEC6 C-terminal 12 aa] | 0.726 ± 0.021
LNEKESTKLFYR [ELP6 C-terminal 12 aa] | 0.701 ± 0.013
LNELGEFKVINS [NPR2 C-terminal 12 aa] | 0.6914 ± 0.0059
LNKKREKKDETE [CSM1 C-terminal 12 aa] | 0.718 ± 0.055
LNNIKTIIEGPE [XYL2 C-terminal 12 aa] | 0.716 ± 0.054
LPAEILSNEPLK [YML119W C-terminal 12 aa] | 0.692 ± 0.071
LPEPNFFRKAAF [AXL1 C-terminal 12 aa] | 0.7 ± 0.015
LPFGCVDDVNRQ [MSK1 C-terminal 12 aa] | 0.719 ± 0.021
LPKIIKKHQRLS [MRH4 C-terminal 12 aa] | 0.191 ± 0.0044
LPPGRVFSRVRR [MRPL35 C-terminal 12 aa] | 0.666 ± 0.012
LPRDSAMSAPDI [YMR085W C-terminal 12 aa] | 0.7081 ± 0.0025
LQMVKNAKDLST [CYR1 C-terminal 12 aa] | 0.694 ± 0.016
LQSDKDLQSLLT [CUE1 C-terminal 12 aa] | 0.683 ± 0.011
LRSKVKNHAQRH [YLR428C C-terminal 12 aa] | 0.693 ± 0.021
LRTVASRLKERY [PNO1 C-terminal 12 aa] | 0.706 ± 0.056
LSEEALSTCCCS [YJL118W C-terminal 12 aa] | 0.738 ± 0.047
LSFADYRKKLLK [SET3 C-terminal 12 aa] | 0.689 ± 0.016
LTVTRWKLQITG [YPR160W-A C-terminal 12 aa] | 0.4486 ± 0.0032
LVSMTILVSGLI [SHE9 C-terminal 12 aa] | 0.262 ± 0.02

Sequence | protein stability index
LWDNKPVEKKRQ [SHH4 C-terminal 12 aa] | 0.72 ± 0.027
LYEEHQQMLDKQ [IPI3 C-terminal 12 aa] | 0.726 ± 0.088
LYSLPISVPCTS [YDL086C-A C-terminal 12 aa] | 0.313 ± 0.018
MALLAMVMGVDM [URA2 C-terminal 12 aa] | 0.676 ± 0.13
MDTLEEMFTEEP [PRP42 C-terminal 12 aa] | 0.7107 ± 0.0067
MIVRFFKKVTFR [CHS1 C-terminal 12 aa] | 0.705 ± 0.008
MIWKWLIEDKKN [MRS2 C-terminal 12 aa] | 0.69 ± 0.052
MKDFSKNEQKEK [SEY1 C-terminal 12 aa] | 0.72 ± 0.043
MKHTKKLQLDKV [PKP2 C-terminal 12 aa] | 0.696 ± 0.024
MNEIDARIFEYK [SPO11 C-terminal 12 aa] | 0.681 ± 0.013
MQLARRIRGQFI [CSE4 C-terminal 12 aa] | 0.646 ± 0.02
MRIRSDMSMMRW [COR1 C-terminal 12 aa] | 0.7133 ± 0.0025
MRNNNDTTFKSF [YNL013C C-terminal 12 aa] | 0.698 ± 0.02
MSLMRKAYHFWC [BAP2 C-terminal 12 aa] | 0.619 ± 0.039
MTMILSRMSCSA [IRA2 C-terminal 12 aa] | 0.609 ± 0.015
MVEAAALKRNKK [ARO10 C-terminal 12 aa] | 0.7161 ± 0.0026
MVYKPEDSLLKI [MTR2 C-terminal 12 aa] | 0.67 ± 0.014
MYCASFQLPANV [TRM5 C-terminal 12 aa] | 0.6578 ± 0.0027
NDEEKQALAEKA [YLR297W C-terminal 12 aa] | 0.6834 ± 0.0067
NDGTSANSACSC [VPS21 C-terminal 12 aa] | 0.691 ± 0.045
NDITLAVYTSAQ [EGO2 C-terminal 12 aa] | 0.651 ± 0.021

Sequence | protein stability index
NEDLGLSDIKVE [ZPR1 C-terminal 12 aa] | 0.68742 ± 0.00015
NEQEINKIFEPE [HXT14 C-terminal 12 aa] | 0.743 ± 0.052
NEQVKKFFLNNV [NAS6 C-terminal 12 aa] | 0.714 ± 0.01
NGLNWEVIEYHA [HRI1 C-terminal 12 aa] | 0.713 ± 0.042
NGNNAESGETKQ [SSC1 C-terminal 12 aa] | 0.6673 ± 0.0059
NKAPSWLLTALE [OCA1 C-terminal 12 aa] | 0.69 ± 0.027
NKKRLSVDYILT [USV1 C-terminal 12 aa] | 0.679 ± 0.022
NKNKNKVTKGRR [RAD27 C-terminal 12 aa] | 0.672 ± 0.026
NKVDINMEQEKF [UGO1 C-terminal 12 aa] | 0.651 ± 0.027
NLANDEQPLHNL [MDM30 C-terminal 12 aa] | 0.659 ± 0.03
NLGYSKDQVFKF [MCR1 C-terminal 12 aa] | 0.688 ± 0.039
NMIIDTLGGNEK [COQ6 C-terminal 12 aa] | 0.692 ± 0.013
NNLNTNTSTTTQ [MIT1 C-terminal 12 aa] | 0.68 ± 0.065
NNLQSFYFDNSN [BCK2 C-terminal 12 aa] | 0.706 ± 0.03
NNNIANDYMDID [YML053C C-terminal 12 aa] | 0.815 ± 0.067
NNRYKNFSPKRL [YHR071C-A C-terminal 12 aa] | 0.683 ± 0.034
NPTIGRDSKKAV [PEX30 C-terminal 12 aa] | 0.702 ± 0.015
NPWKSQIRDWKN [YBL100W-C C-terminal 12 aa] | 0.77 ± 0.031
NRLKGQNSHQQR [RGS2 C-terminal 12 aa] | 0.726 ± 0.035
